T1: human TNFR2 on the cell surface (CHO-TNFR2 cells; human Treg cells) (human, UniProt P20333 23-461)
T1 construct: whole, on cells; The assay field of each row says which cells; also called TNFR2-CHO cell; TNFR2 on Treg cells
T1 sequence (looked up): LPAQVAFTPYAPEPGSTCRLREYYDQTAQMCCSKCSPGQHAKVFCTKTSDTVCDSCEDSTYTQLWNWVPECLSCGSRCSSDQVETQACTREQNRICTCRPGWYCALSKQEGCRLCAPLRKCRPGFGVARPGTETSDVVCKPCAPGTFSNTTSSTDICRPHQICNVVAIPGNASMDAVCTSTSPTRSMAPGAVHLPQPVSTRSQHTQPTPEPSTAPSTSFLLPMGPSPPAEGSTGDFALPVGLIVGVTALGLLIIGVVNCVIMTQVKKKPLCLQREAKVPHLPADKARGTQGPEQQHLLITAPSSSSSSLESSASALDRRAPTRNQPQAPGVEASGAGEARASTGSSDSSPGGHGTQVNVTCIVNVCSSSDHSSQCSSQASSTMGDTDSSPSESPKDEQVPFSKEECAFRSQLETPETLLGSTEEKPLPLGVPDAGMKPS

T2: human TNFR2 (Novoprotein, Catalog No. C830) (human, UniProt P20333 23-257, limits assumed)
T2 construct: construct not described; also called TNFR2 protein
T2 sequence (looked up): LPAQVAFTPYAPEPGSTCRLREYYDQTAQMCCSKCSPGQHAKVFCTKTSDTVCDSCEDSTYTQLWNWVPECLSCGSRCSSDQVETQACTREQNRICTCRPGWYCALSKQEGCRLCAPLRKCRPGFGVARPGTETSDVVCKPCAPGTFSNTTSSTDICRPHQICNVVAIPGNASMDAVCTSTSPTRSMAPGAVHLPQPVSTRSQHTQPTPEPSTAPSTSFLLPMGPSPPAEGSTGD

T3: cynomolgus TNFR2 (Sino 90102-C08H) (cynomolgus, UniProt A0A2K5VET2 132-366)
T3 construct: also called CynoTNFR2 (His tag)
T3 sequence: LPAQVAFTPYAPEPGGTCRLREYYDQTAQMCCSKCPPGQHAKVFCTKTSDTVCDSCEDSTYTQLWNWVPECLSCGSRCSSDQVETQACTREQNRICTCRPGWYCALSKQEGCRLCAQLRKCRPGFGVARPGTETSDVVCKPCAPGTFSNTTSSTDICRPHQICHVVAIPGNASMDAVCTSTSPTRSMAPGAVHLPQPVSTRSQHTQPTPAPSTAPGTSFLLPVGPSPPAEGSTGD

T4: Human TNFR2 recombinant protein (Sino 10417-H08H) (human, UniProt P20333 23-257)
T4 construct: also called hTNFR2 (His tag)
T4 sequence (looked up): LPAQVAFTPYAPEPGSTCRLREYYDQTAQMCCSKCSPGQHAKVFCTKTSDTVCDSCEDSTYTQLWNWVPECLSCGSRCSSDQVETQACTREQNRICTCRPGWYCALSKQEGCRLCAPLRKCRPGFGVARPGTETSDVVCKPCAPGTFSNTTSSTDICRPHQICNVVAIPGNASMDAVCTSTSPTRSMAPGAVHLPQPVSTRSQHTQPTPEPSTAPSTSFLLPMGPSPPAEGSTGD


Key:
[1] = molecular target: T1, human TNFR2 on the cell surface …; test: flow cytometry, blocking of TNFα-biotin on CHO-TNFR2 cells
Procedure: (§1) CHO cells that stably overexpressed human TNFR2 were used for experiments. The cells were resuscitated and passaged until in good state, and the expression level of human TNFR2 on the cells was assessed by FACS. Compared to the isotype control, the assay could be carried out when the fold change of mean fluorescence intensity (MFI) was more than 100 times.
(§2) CHO-TNFR2 cells were digested, washed twice with DPBS and stained with Live/Dead (L/D) at room temperature for 20 min, and then seeded at 1×10⁵ cells/50 μl/well. […] The diluted antibodies were added 50 μl/well into wells pre-seeded with cells, and gently blown and mixed to make the final concentrations of the antibodies to 20, 6.67, 2.22, 0.74, 0.247, 0.08, 0.027 and 0 nM, respectively followed by incubation at 4° C. for 30 min. […] After washing twice with the staining buffer, 100 μl/well of PE-streptavidin was added and incubated at 4° C. for 30 min. After additional washing with the staining buffer twice, 150 μl resuspended cells was analyzed using an flow cytometry. Taking the logarithmic value of the antibody concentrations as abscissa and the corresponding MFI value as ordinate, the inhibition curve of the antibody was drawn, and the IC50 value was calculated by four parameters fitting.

[2] = molecular target: T1, human TNFR2 on the cell surface …; test: cell-based or functional assay
[3] = molecular target: T1, human TNFR2 on the cell surface …; test: flow cytometry, blocking of TNFα-biotin on CHO-TNFR2 cells; against 002#
Procedure: as §1, §2

[4] = molecular target: T2, human TNFR2 (Novoprotein, Catalog No. …); test: blocking ELISA, TNFα-biotin on coated human TNFR2; 002# OD / antibody OD x 100
Procedure: A microplate was pre-coated with 100 μl/well of 1 μg/ml human TNFR2 (Novoprotein, Catalog No. C830). […] After washing the plate, a Streptavidin-HRP working solution (1:10000 dilution) was added at 100 μl/well, and incubated with shaking at room temperature for 40 min. The plate was washed again, the HRP substrate TMB was added for color development, the termination solution was added to terminate the reaction, and the microplate reader was used to read the absorption value.

[5] = molecular target: T3, cynomolgus TNFR2 (Sino 90102-C08H); test: SPR Biacore, antibody on Protein A chip, TNFR2 analyte
Procedure: (§3) In this experiment, Protein A chip was used, and the time required for the chip to capture the diluted antibody was determined by manual run, so that the Rmax of the saturated binding antigen was 50 RU. Human TNFR2 (Sino 10417-H08H) and cynomolgus TNFR2 (Sino 90102-C08H) were diluted to 32, 16, 8, 4, 2 nM. The affinity of antibody and antigen was measured by multi-cycle kinetics. In each cycle, anti-TNFR2 antibodies were injected prior to the injection of gradient concentrations of TNFR2 protein allowing the occurrence of antibody-antigen association and dissociation. After each cycle, the Protein A chip was regenerated with Glycine pH1.5 (to remove the protein on the chip). BIAcore T200 analysis software was used to calculate the affinity KD of antibody binding to antigen.

[6] = molecular target: T4, Human TNFR2 recombinant protein (Sino …); test: as above
Procedure: as §3

[7] = molecular target: T1, human TNFR2 on the cell surface …; test: cell-based or functional assay; remark: listed apart in the source

| IC50 [1] [µg/mL] | % AUC versus positive control (#52), ADCC against Treg [2] [%] | IC50 Relative Value % [3] [%] | % to 002# OD (2 nM) [4] [%] | % to 002# OD (20 nM) [4] [%] | Kd [5] [nM] | koff [5] [s⁻¹] | kon [5] [M⁻¹ s⁻¹] | Kd [6] [nM] | koff [6] [s⁻¹] | kon [6] [M⁻¹ s⁻¹] | proliferation inhibition (TNFα-induced Treg cell proliferation, against anti-Hel) [7] [%] | Binder |
| --- | --- | --- | --- | --- | --- | --- | --- | --- | --- | --- | --- | --- |
| 0.04 | 46.6 | 150 | 74.6 | 110 | 3.61 | 0.0102 | 2.82e+06 | 2.94 | 0.00388 | 1.32e+06 | 9.7 | TNFR2 antibody #133 (antibody, V domains shown) VH: EVQLQESGAELVRSGASVKLSCTASGFNIKDYYIQWVKQRPEQGLEWIGWIDPESGNTKYAPKFQDKATMTADTSSNTAYLQLSGLTSEDSAVYYCNAYYDYDGSMDYWGQGTTVTVSS VL: DIVMTQSPLSLPVSLGDQASISCRSSQSLVHSNGNTYLHWYLQKPGQSPKLLIYKVSNRFSGVPDRFSGSGSGTDFTLKISRVETDDLGVYFCSQSTHVPTWTFGGGTKLEIK |
| 0.056 | 61.4 | 171 | 88.2 | 106 | 0.943 | 0.00243 | 2.57e+06 | 1.41 | 0.00225 | 1.59e+06 | – | TNFR2 antibody #352 (antibody, V domains shown) VH: EVQLQESGPGLVAPSQSLSITCTVSGFSLTSYGVHWVRQPPGKGLEWLVVIWSDGGTTYNSALKSRLSISKDNSKSQVFLKMNSLQTDDTAMYYCARHDDDGYYAMDYWGQGTTVTVSS VL: DIVLTQSPSLMSASPGEKVTMTCSASSSVGYMYWYQQKPRSSPKPWIYLTSNLASGVPARFSGSGSGTSYSLTISSMEVEDAATYYCQQWSSDPFTFGSGTKLEIK |
| 0.021 | 59.3 | 270 | 138 | 178 | 0.0977 | 0.000276 | 2.83e+06 | 0.14 | 0.000237 | 1.7e+06 | – | TNFR2 antibody #395 (antibody, V domains shown) VH: EVQLQESGPVLVQPSQSLSITCTVSGFSLTSYSVHWVRQSPGKGLEWLGVIWSDGGTDYSAAFISRLSISKDNSKSQVFFKMNSLQADDTAIYYCARNDDGGDYAMDYWGQGTTVTVSS VL: EIVLTQSPALMSASPGEKVTMTCSASSSVSYMYWYQQKPRSSPKPWIYLTSNLASGVPARFSGSGSGTSYSLTISSMEAEDAATYYCQQWSSNPLTFGAGTKLEIK |
| 0.101 | 52.7 | 71.4 | 89.7 | 89 | 0.863 | 0.000481 | 558000 | 0.234 | 8.4e-05 | 358000 | 13.6 | TNFR2 antibody #219 (antibody, V domains shown) VH: EVQLQESGAELVRPGASVKLSCKASGYSFTNYWMNWVKQRPGQGLEWIGMIHPSDTETRLNQNFKDKATLTVDKSSSTSYMQLSSPTSEDSAVYYCARGEGLGAARSVSMDYWGQGTTVTVSS VL: DILMTQSPSSLSASLGDRVTISCRASQDISNYLNWYQQKPDGTVKVLIYYTAILHSGVPSRFSGSGSGTDYSLTISNLEQEDIATYFCQQGNTLPWTFGGGTKLEIK |
| 0.109 | 69.6 | 165 | 113 | 154 | 0.151 | 0.000155 | 1.02e+06 | 0.0681 | 5.57e-05 | 817000 | 5.2 | TNFR2 antibody #125 (antibody, V domains shown) VH: EVQLQESGGGLVQPGGSLNLSCAASGFAFSIYDLSWVRQTPEKRLEWVAYINNGGISTYYSDTVKGRFTISRDNAKNTLYLQMSSLKSEDTAMYYCVRGPFYGSANYFDYWGQGTTVTVSS VL: DIQMTQSPASLSLSVGETVTITCRASENIYSNLAWYQQKQGKSPQLLVYDATKLAEGVPSRFSGSESGTQYSLKINSLQSEDFGTYYCQHFWVTPWTFGGGTKLEIK |
| 0.14 | 80.8 | 65.6 | 84.2 | 126 | 0.279 | 0.000185 | 662000 | 0.161 | 8.95e-05 | 556000 | 17.1 | TNFR2 antibody #001 (antibody, V domains shown, also called antibody #1) VH: EVQLQESGGGLVQPGGSLNLSCAASGFAFSTYDLSWVRQTPEKRLEWVAYINNGGISTYYSDTVKGRFTISRDNAKNTLYLQMSSLKSEDTAMYYCVRGPFYGSANYFDYWGQGTTVTVSS VL: EIVMTQSPASLSLSVGETVTITCRTSESIYSNLPWYQQKQGKSPQLLVYDATKLAEGVPSRFSGSESGTQYSLKINSLQSEDFGTYYCQHFWVTPWTFGGGTKLEIK |
| 0.128 | 48.1 | 132 | 101 | 277 | 0.273 | 0.000116 | 425000 | 0.101 | 2.36e-05 | 233000 | – | TNFR2 antibody #224 (antibody, V domains shown) VH: EVQLQESGPEIVKPGASVKLSCTASGFNNKDIYMHWVKQRPEQGLEWIGRIDPATGNTKHDPKFQDKATLSSDTSSNTAYLQFSSLTSEDTAVYYCAHSPYGDFGAMDYWGQGTTVTVSS VL: DIQMTQSPAIMSASLGERVTMTCTASSSVSSNYLHWYQQKPGSSPKLWIYSTSNLPSGVPARFSGSGSGTSYSLTISSMEAEDAATYYCHQYHRSPWTFGGGTKLEIK |

— patent US20220017630A1 (JIANGSU SIMCERE PHARMACEUTICAL, published 2022)
